This note sets out measurements from patent publication US7432070B2, “Homogenous assay for enzymatic activity” (Pierce Biotechnology, Inc., priority 2003, dated 2008).

Non-standard residues stand in square brackets, D forms with d. No end group written: not given here. pS = N[C@@H](COP(=O)(O)O)C(=O)O; Nva = CCC[C@H](N)C(=O)O

For one test, the target named is T1, MMP-3 (Homo sapiens, UniProt P08254).
T1 construct: Recombinant MMP-3 catalytic subunit; purchased Calbiochem
The experiment in a line: Km determination for MMP-3 using the protease assay. Type of test: biochemical. As to conditions: substrate at 1, 2, 5 and 10 μM, 0.88 mU/ml MMP-3, 5 minutes, room temperature, N=3; read-out: Km of labeled peptide substrate for MMP-3. The source says: (§1) Pepsin A was purchased from Sigma. TPCK Trypsin was obtained from Pierce Biotechnology.

The target of another test is T2, Calpain 1 (Homo sapiens, UniProt P07384).
T2 construct: Calpain 1 from human erythrocytes; purchased Calbiochem; host or cells: human erythrocytes
T2 sequence (P07384 1-714): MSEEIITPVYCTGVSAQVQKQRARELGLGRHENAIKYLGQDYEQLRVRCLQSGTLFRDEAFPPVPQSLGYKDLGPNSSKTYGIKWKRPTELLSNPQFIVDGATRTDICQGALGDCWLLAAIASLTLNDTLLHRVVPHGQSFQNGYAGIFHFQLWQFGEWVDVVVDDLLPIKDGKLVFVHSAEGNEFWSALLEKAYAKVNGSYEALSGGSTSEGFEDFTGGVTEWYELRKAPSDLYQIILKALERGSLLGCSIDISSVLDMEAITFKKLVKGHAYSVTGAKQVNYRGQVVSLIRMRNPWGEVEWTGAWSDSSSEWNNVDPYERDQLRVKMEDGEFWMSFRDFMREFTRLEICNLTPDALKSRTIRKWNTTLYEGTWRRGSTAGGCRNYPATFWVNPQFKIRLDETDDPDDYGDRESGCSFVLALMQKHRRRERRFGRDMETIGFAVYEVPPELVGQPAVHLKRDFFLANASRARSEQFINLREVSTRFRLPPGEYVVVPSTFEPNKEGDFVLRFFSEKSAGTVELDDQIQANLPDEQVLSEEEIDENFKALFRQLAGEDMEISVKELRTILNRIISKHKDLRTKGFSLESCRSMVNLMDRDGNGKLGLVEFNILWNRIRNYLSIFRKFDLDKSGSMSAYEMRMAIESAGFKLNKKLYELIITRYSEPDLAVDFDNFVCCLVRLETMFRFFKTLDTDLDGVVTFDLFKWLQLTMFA
T2 sequence (P04632 1-268 partner): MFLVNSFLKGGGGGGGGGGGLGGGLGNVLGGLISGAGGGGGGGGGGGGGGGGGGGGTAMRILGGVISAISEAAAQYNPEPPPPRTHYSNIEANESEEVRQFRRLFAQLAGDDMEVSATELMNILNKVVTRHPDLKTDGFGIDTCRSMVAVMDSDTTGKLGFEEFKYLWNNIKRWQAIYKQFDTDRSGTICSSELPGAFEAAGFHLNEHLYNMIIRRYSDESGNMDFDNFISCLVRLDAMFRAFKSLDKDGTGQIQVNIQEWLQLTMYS
The experiment in a line: Km determination for Calpain 1 using the protease assay. Type of test: biochemical. Conditions: substrate at 0.078, 0.15, 0.31 and 0.62 μM, 13.15 U/ml Calpain 1, 5 minutes, room temperature, N=3; read-out: Km of labeled peptide substrate for Calpain 1. The method, then:
as §1
Calpain 1 Lissamine rhodamine-labeled peptide substrate (Dye-[…] PRDpSA) (SEQ. ID NO 3) at 0.078, 0.15, 0.31 and 0.62 μM were digested with 13.15 U/ml Calpain 1. The Lissamine rhodamine-labeled peptide was prepared in 25 mM Tris, 150 mM NaCl pH 7.5, 10 mM CaCl2, and Calpain 1 was prepared in 25 mM Tris, 150 mM NaCl pH 7.5. […] N=3.

T1 sequence (P08254 100-272 limits assumed, species assumed): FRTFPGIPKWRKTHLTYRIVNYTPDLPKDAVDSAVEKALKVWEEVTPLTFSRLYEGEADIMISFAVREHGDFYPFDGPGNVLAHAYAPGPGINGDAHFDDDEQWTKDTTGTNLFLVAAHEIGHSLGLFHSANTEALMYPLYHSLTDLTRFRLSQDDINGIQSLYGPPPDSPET

As usually defined, the Km is the substrate concentration at which the rate is half of its maximum. As to “Dye-RPKPVE-Norvaline-WRKpSA: MMP-3 Lissamine rhodamine-labeled peptide substrate, label at the N-terminus ({Lissamine rhodamine}-RPKPVE[Nva]WRK[pS]A)”, the Km in the test with MMP-3 worked out at 1.44 ± 0.15 µM. With “Dye-QQQEVYGMM PRDpSA: Calpain 1 Lissamine rhodamine-labeled peptide substrate, label at the N-terminus ({Lissamine rhodamine}-QQQEVYGMMPRD[pS]A)”, the Michaelis-Menten constant (Km) with Calpain 1 amounted to 0.17 ± 0.01 µM.
